Measurements: patent US20190300618A1 (Merck Sharp & Dohme, published 2019)

What was measured:
[1] = target: human CD27 (A59T), expressed on cells (human) (UniProt P26842); assay: flow cytometry, transiently transfected CHO-K1; empty vector: GM FITC 212
[2] = target: human CD27 (wild type), expressed on cells (human) (UniProt P26842); assay: as above
[3] = target: human CD27 (A59T), expressed on cells (human) (UniProt P26842); assay: flow cytometry, transiently transfected CHO-K1; empty vector: + 5.32
[4] = target: human CD27 (wild type), expressed on cells (human) (UniProt P26842); assay: as above
[5] = target: T1, human CD27 (wild type), expressed on cells (human, UniProt P26842 21-260); assay: flow cytometry on primary T cells
T1 construct: on transfected CHO-K1 / CHOK1 cells, transfected HEK293FT reporter cells or primary human T cells; also called hCD27; HsCD27
Protocol: Labeled cells were washed by re-suspending them in 150 ul of staining buffer (SB) followed by centrifugation at 300 g for 5 minutes. Cells were then resuspended in 100 ul of SB containing primary anti-CD27 antibodies at various concentrations, incubated in the dark at 4° C. for 30 minutes, followed by washing and centrifugation steps as previously described. […] Cells were incubated for 30 minutes at 4° C. in the dark, followed by washing and centrifugation steps. Next, cells were stained with a cocktail of phenotypic antibodies for surface markers (CD3, CD4, CD8, CD11b) and incubated for 30 minutes at 4° C. in the dark, followed by washing and centrifugation steps. […] Samples were acquired in a LSR-Fortessa flow cytometer (BD Biosciences) using the high throughput sampler and data analyzed by FlowJo software (Tree Star Inc).

EC50 above that of 131AVH6VL6-hIgG1 [5] [%]	Molecule	also measured
	Fc-mCD70 (Fc fusion)	GM FITC [1]: 1060; GM FITC [2]: 1280; cells in the + gate [3]: 52.5%; cells in the + gate [4]: 58.9%
≤ 10	Humanized CD27 131A VH6/VL7-hIgG1 (antibody, V domains shown, human IgG1 constant region; also called hCD27.131A VH6VL7 hulgG1) VH: EIQLVQSGAEVKKPGASVKVSCKASGYTFTNYGMNWVKQAPGQGLKWMGWINTNTGEPTYAEEFKGRFTFTLDTSISTAYMELSSLRSEDTAVYYCAREGDAMDYWGQGTTVTVSS VL: EIVLTQSPATLSLSPGERATLSCSASSSVSYMHWYQQKPGQAPKRWIYDTSKLASGVPARFSGSGSGTSYSLTISSLEPEDFATYYCQQWNSYPFTFGQGTKLEIK	
≤ 10	Humanized CD27 131A VH9/VL9-hIgG1 (antibody, V domains shown, human IgG1 constant region; also called hCD27.131A VH9VL9 hulgG1) VH: EIQLVQSGAEVKKPGASVKVSCKASGYTFTNYGMNWVRQAPGQGLKWMGWINTNTGEPTYAEEFKGRFTFTLDTSASTAYMELSSLRSEDTAVYYCAREGDAMDYWGQGTTVTVSS VL: DIQLTQSPSTLSASVGDRVTITCSASSSVSYMHWYQQKPGKAPKRWIYDTSKLASGVPARFSGSGSGTDYTLTISSLQPEDFATYYCQQWNSYPFTFGQGTKLEIK	
≤ 10	Humanized CD27 131A VH7/VL7-hIgG1 (antibody, V domains shown, human IgG1 constant region; also called hCD27.131A VH7VL7 hulgG1) VH: EIQLVQSGAEVKKPGASVKISCKASGYTFTNYGMNWVKQAPGQGLKWMGWINTNTGEPTYAEEFKGRFTFTLDTSATTAYLEISSLRSEDTAVYYCAREGDAMDYWGQGTTVTVSS VL: EIVLTQSPATLSLSPGERATLSCSASSSVSYMHWYQQKPGQAPKRWIYDTSKLASGVPARFSGSGSGTSYSLTISSLEPEDFATYYCQQWNSYPFTFGQGTKLEIK	
≤ 10	Humanized CD27 131A VH8/VL6-hIgG1 (antibody, V domains shown, human IgG1 constant region; also called hCD27.131A VH8VL6 hulgG1) VH: EIQLVQSGAEVKKPGASVKVSCKASGYTFTNYGMNWVKQAPGQGLKWMGWINTNTGEPTYAEEFKGRFTFTLDTSISTAYMELSSLRNEDTAVYYCAREGDAMDYWGQGTTVTVSS VL: EIVLTQSPATLSLSPGERATLSCSASSSVSYMHWYQQKPGQAPKRWIYDTSKLASGVPARFSGSGSGTDYSLTISSLEPEDFAVYYCQQWNSYPFTFGQGTKLEIK	
≤ 10	Humanized CD27 131A VH8/VL7-hIgG1 (antibody, V domains shown, human IgG1 constant region; also called hCD27.131A VH8VL7 hulgG1) VH: EIQLVQSGAEVKKPGASVKVSCKASGYTFTNYGMNWVKQAPGQGLKWMGWINTNTGEPTYAEEFKGRFTFTLDTSISTAYMELSSLRNEDTAVYYCAREGDAMDYWGQGTTVTVSS VL: EIVLTQSPATLSLSPGERATLSCSASSSVSYMHWYQQKPGQAPKRWIYDTSKLASGVPARFSGSGSGTSYSLTISSLEPEDFATYYCQQWNSYPFTFGQGTKLEIK	
≤ 10	Humanized CD27 131A VH7/VL6-hIgG1 (antibody, V domains shown, human IgG1 constant region; also called hCD27.131A VH7VL6 hulgG1) VH: EIQLVQSGAEVKKPGASVKISCKASGYTFTNYGMNWVKQAPGQGLKWMGWINTNTGEPTYAEEFKGRFTFTLDTSATTAYLEISSLRSEDTAVYYCAREGDAMDYWGQGTTVTVSS VL: EIVLTQSPATLSLSPGERATLSCSASSSVSYMHWYQQKPGQAPKRWIYDTSKLASGVPARFSGSGSGTDYSLTISSLEPEDFAVYYCQQWNSYPFTFGQGTKLEIK	
≤ 10	Humanized CD27 131A VH6/VL8-hIgG1 (antibody, V domains shown, human IgG1 constant region; also called hCD27.131A VH6VL8 hulgG1) VH: EIQLVQSGAEVKKPGASVKVSCKASGYTFTNYGMNWVKQAPGQGLKWMGWINTNTGEPTYAEEFKGRFTFTLDTSISTAYMELSSLRSEDTAVYYCAREGDAMDYWGQGTTVTVSS VL: EIVLTQSPATLSASPGERVTLSCSASSSVSYMHWYQQKPGQAPKRWIYDTSKLASGVPARFSGSGSGTDYSLTISSMEPEDFAVYYCQQWNSYPFTFGQGTKLEIK	
≤ 10	Humanized CD27 131A VH7/VL8-hIgG1 (antibody, V domains shown, human IgG1 constant region; also called hCD27.131A VH7VL8 hulgG1) VH: EIQLVQSGAEVKKPGASVKISCKASGYTFTNYGMNWVKQAPGQGLKWMGWINTNTGEPTYAEEFKGRFTFTLDTSATTAYLEISSLRSEDTAVYYCAREGDAMDYWGQGTTVTVSS VL: EIVLTQSPATLSASPGERVTLSCSASSSVSYMHWYQQKPGQAPKRWIYDTSKLASGVPARFSGSGSGTDYSLTISSMEPEDFAVYYCQQWNSYPFTFGQGTKLEIK	
≤ 10	Humanized CD27 131A VH8/VL8-hIgG1 (antibody, V domains shown, human IgG1 constant region; also called hCD27.131A VH8VL8 hulgG1) VH: EIQLVQSGAEVKKPGASVKVSCKASGYTFTNYGMNWVKQAPGQGLKWMGWINTNTGEPTYAEEFKGRFTFTLDTSISTAYMELSSLRNEDTAVYYCAREGDAMDYWGQGTTVTVSS VL: EIVLTQSPATLSASPGERVTLSCSASSSVSYMHWYQQKPGQAPKRWIYDTSKLASGVPARFSGSGSGTDYSLTISSMEPEDFAVYYCQQWNSYPFTFGQGTKLEIK	
